Measured values taken from article PMC8244513 (Current Research in Structural Biology, 2020).

Biological target: the molecule itself
Assay: native gel or EMSA

B1: ZnT8B-G3H6 (amino-terminal truncated, 35 kDa isoform of human zinc transporter ZnT8 / SLC30A8) (natural protein)
chain: MYHCHSGSKPTEKGANEYAYAKWKLCSASAICFIFMIAEVVGGHIAGSLAVVTDAAHLLIDLTSFLLSLFSLWLSSKPPSKRLTFGWHRAEILGALLSILCIWVVTGVLVYLACERLLYPDYQIQATVMIIVSSCAVAANIVLTVVLHQRCLGHNHKEVQANASVRAAFVHALGDLFQSISVLISALIIYFKPEYKIADPICTFIFSILVLASTITILKDFSILLMEGVPKSLNYSGVKELILAVDGVLSVHSLHIWSLTMNQVILSAHVATAASRDSQVVRREIAKALSKSFTMHSLTIQMESPVDQDPDCLFCEDPCD
  stoichiometry N: 2
